Consider two molecules from article PMC7544213, “Weak binding to the A2RE RNA rigidifies hnRNPA2 RRMs and reduces liquid–liquid phase separation and aggregation”.

Holding throughout (conditions): protein: recombinant; tags: His tag removed by TEV; single strand
In data set [1] the target is T1, hnRNPA2 1-189 (tandem RRMs) (UniProt P22626-2 1-189). Nature of the data set: ITC; ITC: 20 mM NaPi pH 6.75, 150 mM NaCl, 25 C (also 20 mM KPi pH 6.75; 20 mM MES pH 6.7, 150 mM NaCl, 10 mM CaCl2); protein in syringe, RNA in cell. A general note: In ITC the heat of successive injections is recorded.
The target in data set [2] is T1, hnRNPA2 1-189 (tandem RRMs). The experiment in a line: ITC; 20 mM NaPi pH 6.75, 150 mM NaCl; N about 1; ITC: 20 mM NaPi pH 6.75, 150 mM NaCl, 25 C (also 20 mM KPi pH 6.75; 20 mM MES pH 6.7, 150 mM NaCl, 10 mM CaCl2); protein in syringe, RNA in cell.
The target is the same in data set [3]. Nature of the data set: ITC; 7000 uM protein, 800 uM RNA; N 0.798; ITC: 20 mM NaPi pH 6.75, 150 mM NaCl, 25 C (also 20 mM KPi pH 6.75; 20 mM MES pH 6.7, 150 mM NaCl, 10 mM CaCl2); protein in syringe, RNA in cell.
Data set [4] shares this target. Nature of the data set: ITC; 20 mM KPi pH 6.75, no NaCl; N about 1; ITC: 20 mM NaPi pH 6.75, 150 mM NaCl, 25 C (also 20 mM KPi pH 6.75; 20 mM MES pH 6.7, 150 mM NaCl, 10 mM CaCl2); protein in syringe, RNA in cell.
The target is the same in data set [5]. Nature of the data set: ITC; 7000 uM protein, 800 uM RNA; N 0.921; ITC: 20 mM NaPi pH 6.75, 150 mM NaCl, 25 C (also 20 mM KPi pH 6.75; 20 mM MES pH 6.7, 150 mM NaCl, 10 mM CaCl2); protein in syringe, RNA in cell.
The target is the same in data set [6]. Nature of the data set: ITC; 4600 uM protein, 115 uM RNA; N 0.785; ITC: 20 mM NaPi pH 6.75, 150 mM NaCl, 25 C (also 20 mM KPi pH 6.75; 20 mM MES pH 6.7, 150 mM NaCl, 10 mM CaCl2); protein in syringe, RNA in cell.

T1 sequence (P22626 other isoform, or with tags, fused parts or gaps): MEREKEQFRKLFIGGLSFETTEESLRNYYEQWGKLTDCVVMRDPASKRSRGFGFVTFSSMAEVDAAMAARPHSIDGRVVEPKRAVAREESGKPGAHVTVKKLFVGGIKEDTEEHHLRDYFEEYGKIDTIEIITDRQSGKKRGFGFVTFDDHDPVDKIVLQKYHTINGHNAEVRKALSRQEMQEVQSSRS

One may read the Kd as the free concentration of one partner at which half of the binding sites on the other are occupied at equilibrium, for simple one-to-one binding. Consider AAGGACUAGC (ssRNA) [Wu_10mer], for which the equilibrium dissociation constant (Kd) in data set [1] stood at 228 ± 2 nM.

As for GCCAAGGAGCC (ssRNA) [rA2RE11], the Kd in data set [2] is approximately 52 µM; in data set [3] it was 143 ± 10 µM; in data set [4], approximately 35 µM; in data set [5] it was 139 ± 10 µM; in data set [6] it was 19.8 ± 0.4 µM.
